Measurements taken from publication PMC8872791, “MadR mediates acyl CoA-dependent regulation of mycolic acid desaturation in mycobacteria” (Proceedings of the National Academy of Sciences of the …, 2022).

T1: MadR (Mycobacterium tuberculosis H37Rv, UniProt P9WMD9 1-234)
T1 sequence: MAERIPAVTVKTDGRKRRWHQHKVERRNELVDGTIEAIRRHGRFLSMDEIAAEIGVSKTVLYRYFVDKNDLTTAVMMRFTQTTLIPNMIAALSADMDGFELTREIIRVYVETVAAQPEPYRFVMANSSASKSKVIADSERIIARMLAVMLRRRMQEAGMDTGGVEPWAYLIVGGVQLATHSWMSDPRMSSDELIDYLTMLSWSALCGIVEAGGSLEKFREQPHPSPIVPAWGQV


Target: T1, MadR
Assay: EMSA
Details: protein: recombinant; tags: His-tag implied (pET28a, cobalt IMAC); chain copies: 2; blunt

Binder	binding result
desA2 control (substituted motif) (dsDNA) DNA 1: TTCGAGAACGATGCAAATACGAAGGTATACTACCTCATGGTAATCAAACC DNA 2: GGTTTGATTACCATGAGGTAGTATACCTTCGTATTTGCATCGTTCTCGAA	no binding
desA1 control (substituted motif) (dsDNA) DNA 1: CCGTTCGAGACGACTAATGAGGTGCAACAATATACGATCACCATCGGTA DNA 2: TACCGATGGTGATCGTATATTGTTGCACCTCATTAGTCGTCTCGAACGG	no binding
